Test results: patent US10280218B2, “Antibodies binding to BMP4, and uses thereof” (ACADEMISCH MEDISCH CENTRUM, priority 2014, dated 2019)

T1: BMP4 (Homo sapiens, UniProt P12644)
T1 sequence (P12644 293-408): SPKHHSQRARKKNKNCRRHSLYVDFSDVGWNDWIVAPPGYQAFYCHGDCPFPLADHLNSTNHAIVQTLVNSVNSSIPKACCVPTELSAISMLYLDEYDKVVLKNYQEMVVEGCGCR

T2: BMP6 (Homo sapiens, UniProt P22004)
T2 sequence (P22004 375-513): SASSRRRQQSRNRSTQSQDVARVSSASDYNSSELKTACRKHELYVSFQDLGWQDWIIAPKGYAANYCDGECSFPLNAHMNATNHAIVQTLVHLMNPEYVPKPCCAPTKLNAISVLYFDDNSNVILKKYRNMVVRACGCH

T3: BMP5 (Homo sapiens, UniProt P22003)
T3 sequence (P22003 317-454): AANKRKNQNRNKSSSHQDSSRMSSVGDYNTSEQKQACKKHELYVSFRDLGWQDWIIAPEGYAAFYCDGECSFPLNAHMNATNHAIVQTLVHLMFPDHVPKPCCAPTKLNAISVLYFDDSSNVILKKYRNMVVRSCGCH

T4: BMP7 (Homo sapiens, UniProt P18075)
T4 sequence (P18075 293-431): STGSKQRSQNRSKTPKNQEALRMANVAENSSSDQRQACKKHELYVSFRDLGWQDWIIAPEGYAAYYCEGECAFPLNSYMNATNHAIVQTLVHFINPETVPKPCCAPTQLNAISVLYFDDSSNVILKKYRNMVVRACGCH

T5: BMP2 (Homo sapiens, UniProt P12643)
T5 sequence (P12643 283-396): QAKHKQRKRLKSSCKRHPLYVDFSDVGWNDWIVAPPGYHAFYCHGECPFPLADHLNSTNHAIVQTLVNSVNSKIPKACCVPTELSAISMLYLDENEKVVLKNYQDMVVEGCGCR

T6: BMP2 (human)
T6 chain: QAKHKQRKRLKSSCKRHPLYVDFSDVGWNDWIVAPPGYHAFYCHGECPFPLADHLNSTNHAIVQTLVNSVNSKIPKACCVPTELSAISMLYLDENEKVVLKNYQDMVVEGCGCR

T7: BMP4 (human)
T7 chain: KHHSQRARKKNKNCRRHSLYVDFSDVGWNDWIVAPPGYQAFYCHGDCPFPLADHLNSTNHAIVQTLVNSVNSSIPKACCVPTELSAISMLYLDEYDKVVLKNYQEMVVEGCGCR


Columns and labels:
[1] = molecular target: T1, BMP4; assay: Surface plasmon resonance (SPR), BMPs injected over VHH-coated chip; format: binding; design: purchased R&D systems; details: molecule coupled to chip
Description: (§1) To confirm their BMP specificities and to elucidate their binding affinities, our VHHs were subjected to surface plasmon resonance (SPR) analysis. In a first set of experiments, controls and VHHs (either as monomers or dimers) were coupled to SPR chips and the measurement of BMP affinities was obtained by injecting the different BMPs to the plate.
(§2) Serial dilutions (2.0-10 μg/ml) of purified VHHs were spotted on an amine-specific SensEye gold-film gel-type SPRchip (Ssens), using a Continuous Flow Microspotter (Wasatch Microfluidics, Salt Lake City, Utah, United States) as described (Lokate et al., 2007). BMP binding was analyzed on an IBIS MX96 (IBIS Technologies, Enschede, The Netherlands) instrument by performing injections with dilution series (0.05-2.0 μg/ml) of recombinant BMPs on the VHH-coated chip. In each injection, BMPs were injected and incubated for 8 min, followed by 15 min thorough washing with binding buffer (PBS+0.05% Tween20+0.05% sodium azide) to measure dissociation. Epitope binning was done by injecting VHH dilutions (2.0 μg/ml) over the chip, immediately after the dissociation step. Injections with blank binding buffer were used as reference. After each concatenated injection, the chip was regenerated with 10 mM glycine-HCl, pH 2.0. Experimental data were processed with SPRintX software (IBIS Technologies) and kinetic parameters were determined using Scrubber2 software (BioLogic Software, Campbell, ACT, Australia). Binding constants were obtained by global fitting to a one-site binding model.

[2] = molecular target: T2, BMP6; assay: as above; details: molecule coupled to chip; unit inferred; — not defined there (Table 1: No binding detected)
Description: as §1, §2

[3] = molecular target: T3, BMP5; assay: as above; format: binding; details: molecule coupled to chip; unit inferred
Description: as §1, §2

[4] = molecular target: T4, BMP7; assay: as above; format: binding; details: molecule coupled to chip; unit inferred; — not defined there (Table 1: No binding detected)
Description: as §1, §2

[5] = molecular target: T5, BMP2; assay: as above; details: molecule coupled to chip, —: No binding detected
Description: In a first set of experiments, controls and VHHs (either as monomers or dimers) were coupled to SPR chips and the measurement of BMP affinities was obtained by injecting the different BMPs to the plate.
as §2

[6] = molecular target: T6, BMP2; assay: SPR
[7] = molecular target: T7, BMP4; assay: SPR
[8] = molecular target: T5, BMP2; assay: BMP activity luciferase reporter assay (BRE-luciferase, ID1 promoter) in C2C12 cells; format: cell-based, mouse; details: BMP2 50 ng/ml, 16 hours; 5 μg/ml
Description: One of the most studied BMP target genes is the Inhibitor of Differentiation 1 (ID1). This is an immediate early gene that is activated by binding of the phosphorylated SMADs to its promoter region (López-Rovira et al., 2002). Thus, we employed the BMP-responsive C2C12 cells, which are stably transfected with the BRE-luciferase vector containing the BMP-Responsive-Element (the mouse ID1 promoter) cloned into the pGL3 luciferase vector (Zilberberg 2007). […] C2C12 cells were treated with the different BMPs with or without our VHHs or human Noggin at a concentration of 5 μg/ml. Luciferase activity was measured after 16 hours incubation. Most of the transcriptional data is in concordance with the results obtained with the phosphorylation of SMAD1/5/8.
C2C12 cells were plated in 96-well plates at 5×10^3 cells/well and cells were allowed to attach overnight. 100 μl of DMEM with 0.1% BSA were added in each well. VHH antibodies and human Fc-Noggin at the indicated concentrations were added at the same time. Wells with unstimulated cells were added as controls. Cells were treated in triplicate with the BMPs at the indicated concentrations for 16 hours. Luciferase activity was measured by adding 100 μl of luciferase substrate solution from the Bright-Glo™ Luciferase Assay System (Promega Benelux, Leiden, The Netherlands). After 3 minutes of incubation, luciferase activity was measured with Synergy HT Multi-Mode Microplate Reader (Biotek, Winooski, Vt., United States). Luciferase values were normalized to background activity (activity of wells with no cells) and represented as ratio to the activity of BMP-stimulated cells.
To evaluate the extent of this increase in potency, the IC50 of the different VHHs were determined in a dose-dependent inhibition assay in C2C12 cells (FIG. 25). C2C12 cells were plated in 96-well plates at 5×10^3 cells/well and cells were allowed to attach overnight 100 μl of DMEM with 0.1% BSA were added in each well. VHH antibodies were added at the indicated concentrations at the same time as 5 ng/ml BMP4 (FIG. 25A-B, D) or 50 ng/ml of BMP2 (FIG. 25C,D). Luciferase activity was measured after 16 hours. Values are represented as ratio to the activity of BMP-stimulated cells. […] However, its effects were more striking for BMP2 rather than BMP4 inhibition. […] The IC50 values for BMP4 inhibition observed in our VHHs are considerably lower than those observed for anti-BMP4 commercially available from R&D (Katagiri et al 1994) and those described in WO_2008/030611.
C2C12 cells were cultured in 96-well plates at 5×10^3 cells/well. After overnight attachment cells were stimulated with 10 ng/ml hBMP4 (Cat No. 314-BP-020; R&D Systems), 50 ng/ml hBMP2 (Cat No. 355-BM-010; R&D Systems), 200 ng/ml hBMP5 (Cat No. 615-BMC-020; R&D Systems), 50 ng/ml hBMP6 (Cat No. 506-BP-020; R&D Systems), 200 ng/ml hBMP7 (Cat No. 354-BP-010; R&D Systems), 25 ng/ml hBMP9 (Cat No. 3209-BP-010; R&D Systems), 25 ng/ml hBMP10 (Cat No. 2926-BP-025; R&D Systems), 50 ng/ml hBMP12 (Cat No. 779-G7-010; R&D Systems) and with or without VHH antibodies: C4C4 and C8C8 at 500 ng/ml; natural antagonist: mNoggin (Cat No. 1967-NG-025; R&D Systems), hNoggin (Cat No. 6057-NG; R&D Systems) and mGremlin (cat#956-GR-050; R&D Systems) at 500 ng/ml; chemical antagonist: 0.5 μM LDN-193189 (Cat No. 11802; Cayman Chemical) and 0.2 μM DMH1 (Cat No. 57146; Selleckchem).
VHH efficacy was evaluated by stimulating cells with 10 ng/ml of hBMP4 and 50 ng/ml of hBMP2, with and without increase concentrations (from 0.1-10 μg/ml) of VHH and anti-BMP4 antibodies: clone 66119, clone 3H2, clone M912262, clone PA354-16.1.1, Clone EPR6211, and anti-BMP4 (ab39973). […] Unstimulated cells were used as controls and wells with no cells used to normalize the background activity. […]

| Kd [6] | Kd [7] | Molecule | further results |
| --- | --- | --- | --- |
| – | – | BMPR1a: type I BMP receptor used as control in SPR [reference compound] | kd (BMP4) [1]: 9.2 10^−5 sec^−1; Kd [2]: 24 nM; Kd [3]: 60 nM; Kd [4]: 131 nM; kd (BMP2) [5]: 14.0 10^−5 sec^−1 |
| 1.07 nM | 0.512 nM | E7 (antibody, V domains shown) VH: EVQLVESGGGLVQAGGSLRLSCAASGSIRGFVAMAWYRQAPGKQREWVATVTNGGTLYGDSVKGRFTGSRDNAKNTVYLQMNSLKPEDTAVYYCALRQIGASGYDYWGQGTQVTVSS | – |
| 0.0628 nM | 0.031 nM | C8-C8 (antibody, V domains shown) V domain 1: EVQLVESGGGLVQAGGSLRLSCAASGRTFRINDMGWYRQAPGKSRDMVARITSGGNTNYADSVKGRFTISRDNAKNTVYLQMNSLKPEDTAVYYCNADGLRFDSTRYRPFDSWGQGTQVTVSS V domain 2: EVQLVESGGGLVQAGGSLRLSCAASGRTFRINDMGWYRQAPGKSRDMVARITSGGNTNYADSVKGRFTISRDNAKNTVYLQMNSLKPEDTAVYYCNADGLRFDSTRYRPFDSWGQGTQVTVSS | – |
| 0.554 nM | 0.099 nM | C8-E7 (antibody, V domains shown) V domain 1: EVQLVESGGGLVQAGGSLRLSCAASGRTFRINDMGWYRQAPGKSRDMVARITSGGNTNYADSVKGRFTISRDNAKNTVYLQMNSLKPEDTAVYYCNADGLRFDSTRYRPFDSWGQGTQVTVSS V domain 2: EVQLVESGGGLVQAGGSLRLSCAASGSIRGFVAMAWYRQAPGKQREWVATVTNGGTLYGDSVKGRFTGSRDNAKNTVYLQMNSLKPEDTAVYYCALRQIGASGYDYWGQGTQVTVSS | – |
| 0.88 nM | 0.392 nM | C8 (antibody, V domains shown) VH: EVQLVESGGGLVQAGGSLRLSCAASGRTFRINDMGWYRQAPGKSRDMVARITSGGNTNYADSVKGRFTISRDNAKNTVYLQMNSLKPEDTAVYYCNADGLRFDSTRYRPFDSWGQGTQVTVSS | – |
| – | 0.635 nM | BMPR1a (protein) QNLDSMLHGTGMKSDSDQKKSENGVTLAPEDTLPFLKCYCSGHCPDDAINNTCITNGHCFAIIEEDDQGETTLASGCMKYEGSDFQCKDSPKAQLRRTIECCRTNLCNQYLQPTLPPVVIGPFFDGSIR | – |
| 2.15 nM | 0.0097 nM | C4-C4 (antibody, V domains shown) V domain 1: EVQLVESGGGLVQAGGSLRLSCAASGRTFSTYAMGWFRQAPGKEREFVAAISKGGGITYYSDSVRGRFTISKENAKNTVYLQMNSLKPEDTAVYYCAADPVSSVAKSPVAYPYWGQGTQVTVSS V domain 2: EVQLVESGGGLVQAGGSLRLSCAASGRTFSTYAMGWFRQAPGKEREFVAAISKGGGITYYSDSVRGRFTISKENAKNTVYLQMNSLKPEDTAVYYCAADPVSSVAKSPVAYPYWGQGTQVTVSS | – |
| – | – | D99A of C4: mutational variant of VHH C4, single substitution D99A (protein) VHH: EVQLVESGGGLVQAGGSLRLSCAASGRTFSTYAMGWFRQAPGKEREFVAAISKGGGITYYSDSVRGRFTISKENAKNTVYLQMNSLKPEDTAVYYCAAAPVSSVAKSPVAYPYWGQGTQVTVSS | inhibition of BMP2-mediated transcriptional activation [8]: C4 nor its D99A mutant, had any effect |
